According to patent US20180362629A1 (ZOETIS BELGIUM S A, published 2018):
Like-named read-outs stand apart in the source and are kept apart here.

Assays:
[1] = target: recombinant canine β NGF (canine); experiment: cell-based or functional assay
recombinant canine β NGF [2] = target: T1, recombinant canine β NGF (canine, UniProt Q29074 110-229 (pig entry)); experiment: cell-based or functional assay
T1 chain: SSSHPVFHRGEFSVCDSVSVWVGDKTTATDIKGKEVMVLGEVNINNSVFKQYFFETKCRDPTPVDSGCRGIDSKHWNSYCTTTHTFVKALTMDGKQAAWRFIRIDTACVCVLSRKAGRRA

recombinant canine β NGF [3] = target: T1, recombinant canine β NGF; experiment: SPR (Biacore T100), antibody captured on goat anti-canine IgG, canine NGF injected
Experimental: Purified mouse/canine chimeric antibodies and caninized antibodies were analyzed for affinity to canine NGF using a Biacore T100 instrument. Goat anti Canine IgG (Southern Biotech) was immobilized at 5000-10000 RU on a CM5 chip using an amine coupling procedure according to the manufacturer's instructions (Biacore). […] The association rate was monitored for 5 min and the dissociation rate was monitored for 10-20 min. The chip surface was regenerated using 50-75 ul 10 mM glycine pH 1.5 at a flow rate of 50-100 ul/min. Data was analyzed using Biaevaluation T100 software version 2.0.2, software, GE Healthcare Life Sciences (Piscataway, N.J.). Overall affinity parameters established for mouse/canine chimeric antibodies is summarized in Table 22 and for caninized antibodies in Table 23. […] The overall KDs of the mouse/canine anti-NGF mAbs range from about 1300 pM to 1.6 pM. […] The overall KDs of the caninized anti-NGF mAbs range from about 42 pM to 1.2 pM.

human β NGF [4] = target: T2, human β NGF (human, UniProt P01138 122-241, biotinylated in the TrkA inhibition ELISA (sites not given)); experiment: TrkA inhibition ELISA; biotin-hNGF bound to rat TrkA/Fc; supernatant 25-fold
T2 construct: Bought (R&D Systems 256-GF/CF); also called Human NGF; biotinylated human NGF
T2 sequence (P01138 122-241 limits assumed): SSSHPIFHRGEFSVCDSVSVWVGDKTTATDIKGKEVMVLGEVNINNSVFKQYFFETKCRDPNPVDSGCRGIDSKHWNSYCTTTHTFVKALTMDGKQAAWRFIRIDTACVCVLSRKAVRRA
Experimental: (§1) The plates were washed three times with PBS/Tween. The plates were blocked with 200 μl/well of 2% milk in PBS for 1 hour at room temperature. The plates were washed three times as above. Rat TrkA/Fc chimera (R&D Systems, catalog #1056-TK) was added at 1 μg/ml (50 μl/well) in PBS/0.1% BSA and then incubated for 1 hour at room temperature. Biotinylated human NGF was titered and pre-incubated with anti-NGF antibody supernatants diluted 1-fold, 5-fold, and 25-fold, or purified anti-NGF mAbs diluted to 0.08, 0.4, 2, or 10 μg/ml for 1 hour at room temperature on a plate shaker. The negative control was unrelated conditioned supernatant. The positive control was sera from a mouse immunized with NGF. The plates were washed and then 50 μl of each biotinylated NGF/Ab mix was added to the appropriate wells. The plates were incubated for 1 hour at room temperature. The plates were washed. […] The plates were incubated for 30 min at room temperature. The plates were washed. 50 μl of TMB (Invitrogen, cat #00-2023) was added and the reaction was stopped using 2N H₂SO₄ (VWR, cat # BDH3500-1). The absorbance at 450 nm was read on a Spectromax 2E plate reader (Molecular Devices), and the absorbance readings are shown in Table 5 The numerical value indicates binding of biotinylated human β NGF to rat TrkA/Fc chimera.

human β NGF [5] = target: T2, human β NGF; experiment: cell-based or functional assay
human β NGF [6] = target: T2, human β NGF; experiment: TrkA inhibition ELISA; biotin-hNGF bound to rat TrkA/Fc; supernatant 5-fold
Experimental: as §1

human β NGF [7] = target: T2, human β NGF; experiment: TrkA inhibition ELISA; biotin-hNGF bound to rat TrkA/Fc; supernatant 1-fold
Experimental: as §1

biotinylated rat β NGF [8] = target: T3, biotinylated rat β NGF (rat, UniProt P25427 122-241, limits assumed, biotinylated); experiment: capture ELISA; supernatant 25-fold
T3 construct: also called Biotinylated Rat NGF; rat NGF
T3 sequence (P25427 122-241 limits assumed): as the sequence (P01138 122-241 limits assumed) above, with S3T, I6V, R9M, M37T, D60A, D65E, M92T, G94D, V117A, A120G counted along it
Experimental: (§2) The plates were washed three times with wash buffer. The plates were blocked with 200 μl of 2% milk and incubated for 1 hour at room temperature. The plates were washed as above. […] The positive control was crude sera (diluted 1:500 with PBS) isolated from a β NGF immunized mouse and the negative control was hybridoma supernatant derived from a mouse immunized with an antigen other than NGF. The plates were washed and then 50 μl of biotinylated human or rat β NGF at 50 ng/ml was added and incubated for 1 hour at room temperature. The plates were washed. […] The plates were incubated for 30 minutes at room temperature. The plates were washed and then TMB substrate (Invitrogen, catalog #00-2023) was added. The reaction was stopped using 2N H₂SO₄ (VWR, catalog # BDH3500-1). The absorbance at 450 nm was read on a Spectromax 2E plate reader (Molecular Devices); these absorbance readings are shown in Tables 1 and 2. The numerical value indicates binding of mouse anti-NGF antibodies to biotinylated human or rat β NGF.

biotinylated human β NGF [9] = target: T4, biotinylated human β NGF (human, UniProt P01138 122-241, biotinylated); experiment: capture ELISA; supernatant 25-fold
T4 construct: also called Biotinylated Human NGF; human NGF
T4 sequence (P01138 122-241 limits assumed): as the sequence (P01138 122-241 limits assumed) above
Experimental: as §2

biotinylated rat β NGF [10] = target: T3, biotinylated rat β NGF; experiment: capture ELISA; supernatant 5-fold
Experimental: as §2

biotinylated human β NGF [11] = target: T4, biotinylated human β NGF; experiment: capture ELISA; supernatant 5-fold
Experimental: as §2

biotinylated rat β NGF [12] = target: T3, biotinylated rat β NGF; experiment: capture ELISA; supernatant 625-fold
Experimental: as §2

biotinylated human β NGF [13] = target: T4, biotinylated human β NGF; experiment: capture ELISA; supernatant 625-fold
Experimental: as §2

biotinylated rat β NGF [14] = target: T3, biotinylated rat β NGF; experiment: capture ELISA; supernatant 125-fold
Experimental: as §2

biotinylated human β NGF [15] = target: T4, biotinylated human β NGF; experiment: capture ELISA; supernatant 125-fold
Experimental: as §2

recombinant canine β NGF [16] = target: T5, recombinant canine β NGF (canine, UniProt Q29074 110-229 (pig entry)); experiment: cell-based or functional assay
T5 chain: T1 chain

recombinant canine β NGF [17] = target: T1, recombinant canine β NGF; experiment: direct ELISA, canine NGF coated at 1 µg/ml, mAb at 10 µg/ml
Experimental: (§3) To determine if purified mouse anti-NGF mAbs bind to canine β NGF, ELISA plates were coated with 50 μl/well of canine NGF (Abbott Laboratories) at 1 μg/ml in PBS and incubated over night at 4° C. The plates were washed three times with PBS+Tween buffer. The plates were blocked with 200 μl/well of 2% milk in PBS for 1 hour at room temperature. The plates were washed three times as above. Purified antibodies were diluted to 0.4, 2, or 10 μg/ml. 50 μl of each concentration of purified antibody was added to the plates. The plates were incubated for 1 hour at room temperature. The plates were washed. 50 μl of a 5000-fold diluted goat anti-mouse IgG Fc-HRP (Thermo, catalog #31439) was added. The plates were incubated for 1 hour at room temperature. 50 μl of TMB (Invitrogen, catalog #00-2023) was added and the reaction was stopped using 2N H₂SO₄ (VWR, catalog # BDH3500-1). The absorbance at 450 nm was read on a Spectromax 2E plate reader (Molecular Devices). The results are shown in Table 9, and the numerical value indicates binding of mouse anti-NGF antibodies to canine β NGF.

recombinant canine β NGF [18] = target: T1, recombinant canine β NGF; experiment: SPR (Biacore), mAb captured on goat anti-mouse IgG Fc, canine NGF injected; Expt 2
Experimental: (§4) A biomolecular protein interaction analysis was used to evaluate the binding kinetics of the interaction between the purified anti-NGF hybridoma antibodies and recombinant canine β NGF. The antibodies were captured using a goat anti-mouse IgG FC (10000 RU) surface which was directly immobilized to a CM5 chip using an amine coupling procedure according to the manufacturer's instructions (Biacore). A sample size of 5 μl of antibody at a concentration of 1 μg/ml was captured at 10 μl minute. Recombinant canine NGF was used as the antigen. Canine NGF was injected at 75 μl/min (concentration range: 5-0.039 nM) for mouse antibodies. The association rate was monitored for 3.3 minutes and the dissociation rate was monitored for 10 minutes. Aliquots of canine NGF were also simultaneously injected over a reference reaction CM surface to record any nonspecific binding background. The instrument sensitivity for on-rate is I×IO⁷, such that any on-rate that is faster than I×IO⁷ may not be accurately measured; the instrument sensitivity for off-rate is […], such that any off-rate that is slower than 1×10⁻⁶ may not be accurately measured. Therefore, an on-rate that is faster than 1×10⁷ is recorded as >1×10⁷ and an off-rate that is slower than 1×10⁻⁶ is recorded as <1×10⁻⁶.

recombinant canine β NGF [19] = target: T1, recombinant canine β NGF; experiment: cell-based or functional assay
recombinant canine β NGF [20] = target: T1, recombinant canine β NGF; experiment: cell-based or functional assay
recombinant canine β NGF [21] = target: T1, recombinant canine β NGF; experiment: SPR (Biacore), mAb captured on goat anti-mouse IgG Fc, canine NGF injected; Average
Experimental: as §4

recombinant canine β NGF [22] = target: T1, recombinant canine β NGF; experiment: direct ELISA, canine NGF coated at 1 µg/ml, mAb at 2 µg/ml
Experimental: as §3

[23] = target: human β NGF (R&D Systems catalog #256-GF/CF) (human, UniProt P01138 122-241); experiment: cell-based or functional assay
human β NGF (R&D Systems catalog #256-GF/CF), sequence (P01138 122-241 limits assumed): as above

recombinant canine β NGF [24] = target: T1, recombinant canine β NGF; experiment: SPR (Biacore), mAb captured on goat anti-mouse IgG Fc, canine NGF injected; Expt 1
Experimental: as §4

recombinant canine β NGF [25] = target: T1, recombinant canine β NGF; experiment: direct ELISA, canine NGF coated at 1 µg/ml, mAb at 0.4 µg/ml
Experimental: as §3

B1: Mu72 Canine IgG1/k Chimera (antibody, V domains shown)
VH: EVHLVESGGGLVKPGGFLILSCAASGFTFSDYYMFWIRQTPGKRLEWVATISDGGSYTYYTDNVKGRFTISRDNVKNNLYLQMSHLKSADTAMYYCARDWSDSEGFAYWGQGTLVTVSA
VL: DVLMTQTPLSLPVSLGDQASISCRSSQSIVQSNGNTYLEWYLQKPGQSPKLLIYKVSNRFSGVPDRFSGSGSGTDFTLKISRVEAEDLGVYYCFQGSHVPFTFGSGTKLEIKR
notes: also called PR-1290646; lot 1785614
TF-1 cell proliferation potency (70 pM canine NGF) [1]: < 50 pM
IC50, canine NGF-induced TF-1 cell proliferation (70 pM canine NGF) (recombinant canine β NGF [2]): 41 pM
Kd (recombinant canine β NGF [3]): 1.3 nM
koff (recombinant canine β NGF [3]): 0.0038 s⁻¹

B2: 2B12 hybridoma supernatant (antibody, mouse IgG2b, V domains shown)
VH: QVQLQQPGAELVKPGASVKLSCKASGYTFTNYWMHWVKQRPGQGLEWIGRIDPYGGGTKHNEKFKRKATVTADKSSSTAYILLSSLTSEDSAVYYCTRSGYDYYFDVWGTGTTVTVSS
VL: DIQMTQSPASLSASVGETVTVTCRASENIYSFLAWHQQKQGKSPQLLVYNANTLAEGVPSRFSGSGSGTQFSLKINSLQPEDFGSYYCQHHFGTPFTFGSGTKLEIKR
notes: Tested as supernatant of the hybridoma before subcloning; mouse IgG2b kappa; also called ML129-2B12.5G9
absorbance at 450 nm (human β NGF [4]): 0.095 OD450
SureFire pERK, % of maximum signal; supernatant 1000-fold (human β NGF [5]): 0%
absorbance at 450 nm (human β NGF [6]): 0.07 OD450
absorbance at 450 nm (human β NGF [7]): 0.065 OD450

B3: PR-1254972 (antibody, mouse IgG2b, V domains shown)
VH: B1 VH
VL: B1 VL
notes: also called 20B10; ML129-20B10.3F4
absorbance at 450 nm (biotinylated rat β NGF [8]): 0.431
absorbance at 450 nm (biotinylated human β NGF [9]): 0.997
absorbance at 450 nm (biotinylated rat β NGF [10]): 0.472
absorbance at 450 nm (biotinylated human β NGF [11]): 1.1
absorbance at 450 nm (biotinylated rat β NGF [12]): 0.108
absorbance at 450 nm (biotinylated human β NGF [13]): 0.143
absorbance at 450 nm (biotinylated rat β NGF [14]): 0.261
absorbance at 450 nm (biotinylated human β NGF [15]): 0.576
PathHunter IC50 (441 pM canine NGF) (recombinant canine β NGF [16]): < 1 nM
SureFire cellular pERK IC50 (128 pM canine NGF) (recombinant canine β NGF [16]): < 1 nM

B4: PR-1254980 (antibody, mouse IgG1, V domains shown)
VH: EVQLQQSGAELVKPGASVKLSCTASGFNIKDTYIYWVKQRPEQGLEWIGRIDPANGNTIYASKFQGKATITADTSSNTAYMQLSSLTSGDTAVYYCAGYGYYAYWGQGTTLTVSS
VL: DVVLTQTPLSLPVNIGDQASISCKSTKSLLNGDGFTYLDWYLQKPGQSPQLLIYLVSNRFSGVPDRFSGSGSGTDFTLKISRVEAEDLGVYYCFESNYLFTFGSGTKLEMKR
notes: also called 23F1; ML129-23F1.4G3
absorbance at 450 nm (recombinant canine β NGF [17]): 0.491 A450
Kd (recombinant canine β NGF [18]): < 0.0225 nM
koff (recombinant canine β NGF [18]): 0.000225 s⁻¹
kon (recombinant canine β NGF [18]): > 1e+07 M⁻¹ s⁻¹
IC50, canine NGF-induced TF-1 cell proliferation (70 pM canine NGF) (recombinant canine β NGF [19]): 0.343 nM
PathHunter IC50 (441 pM canine NGF) (recombinant canine β NGF [20]): 0.381 nM
SureFire pERK IC50 (128 pM canine β NGF) (recombinant canine β NGF [20]): 13.7 pM
Kd (recombinant canine β NGF [21]): < 0.0231 nM
koff (recombinant canine β NGF [21]): 0.000231 s⁻¹
kon (recombinant canine β NGF [21]): > 1e+07 M⁻¹ s⁻¹
absorbance at 450 nm (recombinant canine β NGF [22]): 0.334 A450
PathHunter % of max signal, supernatant 100-fold [23]: 5%
Kd (recombinant canine β NGF [24]): < 0.0237 nM
koff (recombinant canine β NGF [24]): 0.000237 s⁻¹
kon (recombinant canine β NGF [24]): > 1e+07 M⁻¹ s⁻¹
absorbance at 450 nm (recombinant canine β NGF [25]): 0.168 A450
